In general, Kd refers to the concentration at which binding is half-saturated.

The text below walks through data of publication PMC8546699, “Ehrlichia chaffeensis TRP120 Is a Wnt Ligand Mimetic That Interacts with Wnt Receptors and Contains a Novel Repetitive Short Linear Motif That Activates Wnt Signaling” (mSphere, 2021).

Experiment [1] concerns the target rTRP120-tandem repeat domain truncate construct (rTRP120-TRD) (Ehrlichia chaffeensis) (UniProt Q2GI62). Put plainly: SPR; His-tagged rTRP120-FL or rTRP120-TRD (0.1 µM) captured on Ni-NTA sensor chip; rFzd-ECD 0 to 1,600 nM flowed over; Biacore T100; 100 mM NaPO4 pH 7.4, 400 mM NaCl, 40 µM EDTA, 0.005% Tween 20; 1:1 fit. On the technique in general: In SPR one partner is held on a chip, and binding of the other changes the refractive index at the surface.

Experiment [2] deals with T1, recombinant, full-length TRP120 (rTRP120-FL) (Ehrlichia chaffeensis, UniProt Q2GI62 1-548).
T1 construct: Ehrlichia chaffeensis tandem repeat protein TRP120, full-length gene cloned upstream of a 6xHis tag; Thioredoxin fusion from the vector pBAD/Thio-TOPO; also called rTRP12-FL; source: E. coli TOP10, pBAD/Thio-TOPO, purified (His-tag purification resin); not shown: His6, C-terminal, kept
T1 sequence: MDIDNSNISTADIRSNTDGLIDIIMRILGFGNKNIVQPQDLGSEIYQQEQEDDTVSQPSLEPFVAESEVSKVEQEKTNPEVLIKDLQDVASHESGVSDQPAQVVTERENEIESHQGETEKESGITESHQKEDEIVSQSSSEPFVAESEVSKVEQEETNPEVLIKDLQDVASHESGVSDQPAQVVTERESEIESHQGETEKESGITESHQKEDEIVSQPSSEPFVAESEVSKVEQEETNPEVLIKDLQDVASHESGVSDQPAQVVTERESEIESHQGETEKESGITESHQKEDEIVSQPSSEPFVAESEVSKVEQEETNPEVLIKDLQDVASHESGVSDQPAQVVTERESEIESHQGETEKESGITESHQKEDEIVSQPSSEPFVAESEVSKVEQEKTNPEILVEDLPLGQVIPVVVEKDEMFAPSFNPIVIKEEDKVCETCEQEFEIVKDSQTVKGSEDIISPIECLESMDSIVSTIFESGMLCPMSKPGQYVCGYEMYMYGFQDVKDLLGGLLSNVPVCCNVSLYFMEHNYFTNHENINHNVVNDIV
The experiment is described as above. Conditions: both partners purified.

Take “recombinant Fzd5 extracellular domain (rFzd5-ECD) (from UniProt Q13467 27-238) (domain or fragment)”: in experiment [1], the Kd worked out at 1.35 µM.

B1: recombinant Fzd5 extracellular domain (rFzd5-ECD) (domain or fragment, UniProt Q13467 27-238, looked up)
chain: ASKAPVCQEITVPMCRGIGYNLTHMPNQFNHDTQDEAGLEVHQFWPLVEIQCSPDLRFFLCSMYTPICLPDYHKPLPPCRSVCERAKAGCSPLMRQYGFAWPERMSCDRLPVLGRDAEVLCMDYNRSEATTAPPRPFPAKPTLPGPPGAPASGGECPAGGPFVCKCREPFVPILKESHPLYNKVRTGQVPNCAVPCYQPSFSADERTFATFW
notes: Frizzled-5, recombinant extracellular domain (methods: 'cysteine-rich domain-truncated protein'); commercial Frizzled ECD proteins are often Fc chimeras and may be mouse (surmise); also called Fzd5-CRD; source: bought: R&D Systems
B1: the Kd in experiment [2] is 46.3 µM.
